Test results published in US20180037644A1 (Pfizer, published 2018).

T1: cynomolgus monkey IL-33 (cys mut) (cynomolgus monkey)
T1 chain: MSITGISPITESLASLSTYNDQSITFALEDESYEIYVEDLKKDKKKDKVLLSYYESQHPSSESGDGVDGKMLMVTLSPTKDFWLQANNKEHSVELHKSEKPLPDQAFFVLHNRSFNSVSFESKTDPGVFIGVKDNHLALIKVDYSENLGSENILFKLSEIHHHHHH

T2: human IL-33 (mm2) (human, UniProt O95760 112-270)
T2 chain: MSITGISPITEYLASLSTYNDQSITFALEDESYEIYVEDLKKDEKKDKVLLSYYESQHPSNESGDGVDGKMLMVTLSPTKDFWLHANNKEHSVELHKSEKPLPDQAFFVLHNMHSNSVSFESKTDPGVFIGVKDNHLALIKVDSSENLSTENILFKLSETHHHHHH


Experiments:
[1] = target: T1, cynomolgus monkey IL-33 (cys mut); test: cell-based or functional assay
human IL-33 (mm2) = target: T2, human IL-33 (mm2); test: cell-based or functional assay

Binder | IC50, HEK293 ST2 NFkB cyno IL-33 [1] | IC50, HEK293 ST2 NFkB (human IL-33 (mm2)) | IC50, PBMC mm2 (human IL-33 (mm2)) | IC50, whole blood mm2 (human IL-33 (mm2))
IL33-158 (antibody, human IgG1, kappa) heavy: EVQLVESGGGLVQPGGSLRLSCAASGFTFSSYWMYWVRQAPGKGLEWVAAITPNAGEDYYPESVKGRFTISRDNAKNSLYLQMNSLRAEDTAVYYCARGHYYYTSYSLGYWGQGTLVTVSSASTKGPSVFPLAPSSKSTSGGTAALGCLVKDYFPEPVTVSWNSGALTSGVHTFPAVLQSSGLYSLSSVVTVPSSSLGTQTYICNVNHKPSNTKVDKKVEPKSCDKTHTCPPCPAPEAAGAPSVFLFPPKPKDTLMISRTPEVTCVVVDVSHEDPEVKFNWYVDGVEVHNAKTKPREEQYNSTYRVVSVLTVLHQDWLNGKEYKCKVSNKALPAPIEKTISKAKGQPREPQVYTLPPSREEMTKNQVSLTCLVKGFYPSDIAVEWESNGQPENNYKTTPPVLDSDGSFFLYSKLTVDKSRWQQGNVFSCSVMHEALHNHYTQKSLSLSPGK light: DIQMTQSPSSLSASVGDRVTITCKASQNINKHLDWYQQKPGKAPKLLIYFTNNLQTGVPSRFSGSGSGTDFTLTISSLQPEDFATYYCFQYNQGWTFGGGTKVEIKRTVAAPSVFIFPPSDEQLKSGTASVVCLLNNFYPREAKVQWKVDNALQSGNSQESVTEQDSKDSTYSLSSTLTLSKADYEKHKVYACEVTHQGLSSPVTKSFNRGEC | 0.125 nM | 0.131 nM | 4 pM | 0.007 nM
IL33-167 (antibody, human IgG1, kappa) heavy: EVQLVESGGGLVQPGGSLRLSCAASGFTFSSYWMYWVRQAPGKGLEWVASITPNAGEDYYPDSVKGRFTISRDNAKNSLYLQMNSLRAEDTAVYYCARGHYYYTSYSLGYWGQGTLVTVSSASTKGPSVFPLAPSSKSTSGGTAALGCLVKDYFPEPVTVSWNSGALTSGVHTFPAVLQSSGLYSLSSVVTVPSSSLGTQTYICNVNHKPSNTKVDKKVEPKSCDKTHTCPPCPAPEAAGAPSVFLFPPKPKDTLMISRTPEVTCVVVDVSHEDPEVKFNWYVDGVEVHNAKTKPREEQYNSTYRVVSVLTVLHQDWLNGKEYKCKVSNKALPAPIEKTISKAKGQPREPQVYTLPPSREEMTKNQVSLTCLVKGFYPSDIAVEWESNGQPENNYKTTPPVLDSDGSFFLYSKLTVDKSRWQQGNVFSCSVMHEALHNHYTQKSLSLSPGK light: DIQMTQSPSSLSASVGDRVTITCKASQNINKHLDWYQQKPGKAPKLLIYFTNNLQTGVPSRFSGSGSGTDFTLTISSLQPEDFATYYCFQYNNGWTFGGGTKVEIKRTVAAPSVFIFPPSDEQLKSGTASVVCLLNNFYPREAKVQWKVDNALQSGNSQESVTEQDSKDSTYSLSSTLTLSKADYEKHKVYACEVTHQGLSSPVTKSFNRGEC | 0.062 nM | 0.049 nM | 1 pM | 0.008 nM
IL33-153 (antibody, human IgG1, kappa, V domains shown) VH: EVQLVESGGGLVQPGGSLRLSCAASGFTFSSYWMYWVRQAPGKGLEWVASITPNAGEDYYPDSVKGRFTISRDNAKNSLYLQMNSLRAEDTAVYYCARGHYYYTSYSLGYWGQGTLVTVSS VL: DIQMTQSPSSLSASVGDRVTITCKASQNINKHLDWYQQKPGKAPKLLIYFTNNLQTGVPSRFSGSGSGTDFTLTISSLQPEDFATYYCFQYNQGWTFGGGTKVEIKR | 0.122 nM | 0.087 nM |  | 0.014 nM
IL33-156 (antibody, human IgG1, kappa, V domains shown) VH: EVQLVESGGGLVQPGGSLRLSCAASGFTFSSYWMYWVRQAPGKGLEWVAAITPNGGEDYYPESVKGRFTISRDNAKNSLYLQMNSLRAEDTAVYYCARGHYYYTSYSLGYWGQGTLVTVSS VL: DIQMTQSPSSLSASVGDRVTITCKASQNINKHLDWYQQKPGKAPKLLIYFTNNLQTGVPSRFSGSGSGTDFTLTISSLQPEDFATYYCFQYNQGWTFGGGTKVEIKR | 0.087 nM | 0.116 nM | 4 pM | 0.004 nM
IL33-157 (antibody, human IgG1, kappa, V domains shown) VH: EVQLVESGGGLVQPGGSLRLSCAASGFTFSSYWMYWVRQAPGKGLEWVAAITPNAGEDYYPDSVKGRFTISRDNAKNSLYLQMNSLRAEDTAVYYCARGHYYYTSYSLGYWGQGTLVTVSS VL: DIQMTQSPSSLSASVGDRVTITCKASQNINKHLDWYQQKPGKAPKLLIYFTNNLQTGVPSRFSGSGSGTDFTLTISSLQPEDFATYYCFQYNQGWTFGGGTKVEIKR | 0.161 nM | 0.118 nM |  | 0.016 nM
IL33-154 (antibody, human IgG1, kappa, V domains shown) VH: EVQLVESGGGLVQPGGSLRLSCAASGFTFSSYWMYWVRQAPGKGLEWVASITPNAGEDYYPESVKGRFTISRDNAKNSLYLQMNSLRAEDTAVYYCARGHYYYTSYSLGYWGQGTLVTVSS VL: DIQMTQSPSSLSASVGDRVTITCKASQNINKHLDWYQQKPGKAPKLLIYFTNNLQTGVPSRFSGSGSGTDFTLTISSLQPEDFATYYCFQYNQGWTFGGGTKVEIKR | 0.133 nM | 0.188 nM | 7 pM | 0.01 nM
IL33-168 (antibody, human IgG1, kappa, V domains shown) VH: EVQLVESGGGLVQPGGSLRLSCAASGFTFSSYWMYWVRQAPGKGLEWVASITPNAGEDYYPESVKGRFTISRDNAKNSLYLQMNSLRAEDTAVYYCARGHYYYTSYSLGYWGQGTLVTVSS VL: DIQMTQSPSSLSASVGDRVTITCKASQNINKHLDWYQQKPGKAPKLLIYFTNNLQTGVPSRFSGSGSGTDFTLTISSLQPEDFATYYCFQYNNGWTFGGGTKVEIKR | 0.264 nM | 0.109 nM |  | 0.014 nM
IL33-155 (antibody, human IgG1, kappa, V domains shown) VH: EVQLVESGGGLVQPGGSLRLSCAASGFTFSSYWMYWVRQAPGKGLEWVAAITPNGGEDYYPDSVKGRFTISRDNAKNSLYLQMNSLRAEDTAVYYCARGHYYYTSYSLGYWGQGTLVTVSS VL: DIQMTQSPSSLSASVGDRVTITCKASQNINKHLDWYQQKPGKAPKLLIYFTNNLQTGVPSRFSGSGSGTDFTLTISSLQPEDFATYYCFQYNQGWTFGGGTKVEIKR | 0.239 nM | 0.171 nM |  | 0.025 nM
IL33-169 (antibody, human IgG1, kappa, V domains shown) VH: EVQLVESGGGLVQPGGSLRLSCAASGFTFSSYWMYWVRQAPGKGLEWVAAITPNGGEDYYPDSVKGRFTISRDNAKNSLYLQMNSLRAEDTAVYYCARGHYYYTSYSLGYWGQGTLVTVSS VL: DIQMTQSPSSLSASVGDRVTITCKASQNINKHLDWYQQKPGKAPKLLIYFTNNLQTGVPSRFSGSGSGTDFTLTISSLQPEDFATYYCFQYNNGWTFGGGTKVEIKR | 0.176 nM | 0.071 nM |  | 0.009 nM
IL33-170 (antibody, human IgG1, kappa, V domains shown) VH: EVQLVESGGGLVQPGGSLRLSCAASGFTFSSYWMYWVRQAPGKGLEWVAAITPNGGEDYYPESVKGRFTISRDNAKNSLYLQMNSLRAEDTAVYYCARGHYYYTSYSLGYWGQGTLVTVSS VL: DIQMTQSPSSLSASVGDRVTITCKASQNINKHLDWYQQKPGKAPKLLIYFTNNLQTGVPSRFSGSGSGTDFTLTISSLQPEDFATYYCFQYNNGWTFGGGTKVEIKR | 0.218 nM | 0.176 nM |  | 0.005 nM

Continued, values first:

IC50, HEK293 ST2 NFkB cyno IL-33 [1] | IC50, HEK293 ST2 NFkB (human IL-33 (mm2)) | IC50, PBMC mm2 (human IL-33 (mm2)) | IC50, whole blood mm2 (human IL-33 (mm2)) | Binder
0.222 nM | 0.201 nM |  | 0.012 nM | IL33-172 (antibody, human IgG1, kappa, V domains shown) VH: EVQLVESGGGLVQPGGSLRLSCAASGFTFSSYWMYWVRQAPGKGLEWVAAITPNAGEDYYPESVKGRFTISRDNAKNSLYLQMNSLRAEDTAVYYCARGHYYYTSYSLGYWGQGTLVTVSS VL: DIQMTQSPSSLSASVGDRVTITCKASQNINKHLDWYQQKPGKAPKLLIYFTNNLQTGVPSRFSGSGSGTDFTLTISSLQPEDFATYYCFQYNNGWTFGGGTKVEIKR
0.086 nM | 0.059 nM | 4 pM | 0.006 nM | IL33-175 (antibody, human IgG1, kappa, V domains shown) VH: EVQLVESGGGLVQPGGSLRLSCAASGFTFSSYWMYWVRQAPGKGLEWVAAITPNAGETYYPESVKGRFTISRDNAKNSLYLQMNSLRAEDTAVYYCARGHYYYTSYSLGYWGQGTLVTVSS VL: DIQMTQSPSSLSASVGDRVTITCKASQNINKHLDWYQQKPGKAPKLLIYFTNNLQTGVPSRFSGSGSGTDFTLTISSLQPEDFATYYCFQYNNGWTFGGGTKVEIKR
0.282 nM | 0.15 nM |  | 0.006 nM | IL33-187 (antibody, human IgG1, kappa, V domains shown) VH: EVQLVESGGGLVQPGGSLRLSCAASGFTFSSYWMYWVRQAPGKGLEWVAAITPNAGETYYPDSVKGRFTISRDNAKNSLYLQMNSLRAEDTAVYYCARGHYYYTSYSLGYWGQGTLVTVSS VL: DIQMTQSPSSLSASVGDRVTITCKASQNINKHLDWYQQKPGKAPKLLIYFTNNLQTGVPSRFSGSGSGTDFTLTISSLQPEDFATYYCFQYNQGWTFGGGTKVEIKR
0.144 nM | 0.109 nM |  | 0.012 nM | IL33-186 (antibody, human IgG1, kappa, V domains shown) VH: EVQLVESGGGLVQPGGSLRLSCAASGFTFSSYWMYWVRQAPGKGLEWVAAITPNGGETYYPESVKGRFTISRDNAKNSLYLQMNSLRAEDTAVYYCARGHYYYTSYSLGYWGQGTLVTVSS VL: DIQMTQSPSSLSASVGDRVTITCKASQNINKHLDWYQQKPGKAPKLLIYFTNNLQTGVPSRFSGSGSGTDFTLTISSLQPEDFATYYCFQYNQGWTFGGGTKVEIKR
0.216 nM | 0.145 nM |  | 0.012 nM | IL33-171 (antibody, human IgG1, kappa, V domains shown) VH: EVQLVESGGGLVQPGGSLRLSCAASGFTFSSYWMYWVRQAPGKGLEWVAAITPNAGEDYYPDSVKGRFTISRDNAKNSLYLQMNSLRAEDTAVYYCARGHYYYTSYSLGYWGQGTLVTVSS VL: DIQMTQSPSSLSASVGDRVTITCKASQNINKHLDWYQQKPGKAPKLLIYFTNNLQTGVPSRFSGSGSGTDFTLTISSLQPEDFATYYCFQYNNGWTFGGGTKVEIKR
